The target in assay [1] is T1, human GITR expressed on human primary immune cells (T cells, NK cells, NKT cells of PBMC) (human, UniProt Q9Y5U5 26-241).
T1 construct: Native GITR of donor PBMC; also called hGITR in human primary immune cells; GITR on the surface of immune cells
T1 sequence: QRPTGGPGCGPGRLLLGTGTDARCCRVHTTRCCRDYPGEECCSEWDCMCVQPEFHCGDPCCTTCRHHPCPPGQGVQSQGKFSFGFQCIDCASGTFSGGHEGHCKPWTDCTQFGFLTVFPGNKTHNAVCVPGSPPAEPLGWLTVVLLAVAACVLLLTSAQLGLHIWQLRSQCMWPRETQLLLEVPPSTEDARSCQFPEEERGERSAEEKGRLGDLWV
Put plainly: flow cytometry, AF488-labelled antibody on activated human PBMC. For orientation: Flow cytometry measures light scatter and fluorescence of single cells or particles in a stream.

The target of assay [2] is recombinant human GITR (Cat No. 13643-H08H, Lot No. LC12JA2509, Sino Biological) (human) (UniProt Q9Y5U5). Put plainly: SPR Biacore 8K, multi-cycle kinetics, purified IgG captured on Protein A, GITR as analyte. Background: SPR reads the build-up and loss of mass on a sensor chip optically.
The target is the same in assay [3]. Kind of assay: SPR Biacore 8K, single-cycle kinetics, IgG in supernatant captured on Protein A, GITR as analyte.
For assay [4], the target named is T2, hGITR (including His tag; Cat. GIR-H5228, Acrobiosystems) (human, UniProt Q9Y5U5 26-162).
T2 construct: Bought protein; not shown: His tag
T2 sequence: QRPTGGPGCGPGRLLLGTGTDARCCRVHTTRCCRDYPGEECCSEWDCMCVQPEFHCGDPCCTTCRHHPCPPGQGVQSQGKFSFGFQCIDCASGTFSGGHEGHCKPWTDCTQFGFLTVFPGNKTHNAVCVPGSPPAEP
Put plainly: DSS cross-linking of the GITR/51B complex, nLC-orbitrap MS/MS.

From patent publication EP4339209A1 (MediMabbio Inc., dated 2024) come the findings set out here.

B1: anti-GITR 51B VH0/VL0 chimeric antibody (human IgG1, kappa) (antibody, V domains shown)
VH: QVQLQQSGAELMKPGASVKLSCKTTGYRFTGYWIEWVKQRPGHGLEWIGEILPGSGATYYSENFKGKATFTADTSSNTAYMQVSSLTTGDSAIYYCARKGGYYAMDYWGQGTSVTVSS
VL: QIVLTQSPAIMSASLGERVTMTCTASSSVSSSYFHWYQQKPGSSPKLWIYSTSNLASGVPARFSGSGSGTSYSLTVSSLEAEDAATYYCHLYHRSPRTFGGGTTLDIKR
notes: Chimeric antibody; also called VH0/Vk0; 51B VH0/Vk0
Regarding B1, in assay [1], the binding result is given as “binds”. Further, in assay [2], the Kd – broadly, the concentration at which binding is half-saturated – worked out at 570 pM; the Relative KD (fold vs VH0/VL0) was found to be 1; the koff (commonly a measure of how fast the partners let go of each other) is 0.000314 s⁻¹; the kon – broadly, the rate constant with which the complex forms – was 552000 M⁻¹ s⁻¹. Further, in assay [3], the Kd amounted to 566 pM, the Relative KD (fold vs VH0/VL0) was determined as 1, the koff is 0.000334 s⁻¹ and the kon is 590000 M⁻¹ s⁻¹.

B2: 51B antibody (as used in the epitope mapping, Example 1.7) (antibody, V domains shown)
VH: QVQLQQSGAELMKPGASVKLSCKTTGYRFTGYWIEWVKQRPGHGLEWIGEILPGSGATYYSENFKGKATFTADTSSNTAYMQVSSLTTGDSAIYYCARKGGYYAMDYWGQGTSVTVSS
VL: QIVLTQSPAIMSASLGERVTMTCTASSSVSSSYFHWYQQKPGSSPKLWIYSTSNLASGVPARFSGSGSGTSYSLTVSSLEAEDAATYYCHLYHRSPRTFGGGTTLDIK
notes: also called anti-GITR monoclonal antibody (51B clone)
With B2, the binding result in assay [4] is listed as “binds”.

B3: anti-GITR 51B VH3/VL4 humanized antibody (human IgG1, kappa) (antibody, V domains shown)
VH: QVQLVQSGAEVKKPGASVKVSCKTTGYRFTGYWIEWVRQPPGKGLEWIGEILPGSGATYYSENFKGKVTITADTSTDTAYMELSSLRSEDTAIYYCARKGGYYAMDYWGQGTLVTVSS
VL: EIVLTQSPATLSLSPGERATLSCTASSSVSSSYFHWYQQKPGKAPKLWIYSTSNLQSGVPDRFSGSGSGTDYTLTISSLQAEDVATYYCHLYHRSPRTFGGGTKVEIKR
notes: also called VH3/Vk4; 51B VH3/Vk4
Take B3: the binding result in assay [1] is recorded as “binds”. In addition, in assay [2], the Kd turned out to be 675 pM, the Relative KD (fold vs VH0/VL0) is 1.19, the koff was 0.00043 s⁻¹ and the kon amounted to 636000 M⁻¹ s⁻¹. Further, in assay [3], the Kd is 758 pM, the Relative KD (fold vs VH0/VL0) was 1.3, the koff worked out at 0.000467 s⁻¹ and the kon came to 616000 M⁻¹ s⁻¹.
